Test results: patent US20240352438A1, “MEANS AND METHODS FOR DETOXIFYING OCHRATOXIN A” (DSM Austria GmbH, priority 2021, published 2024)

Columns and labels:
[1] = OTA detoxification activity assay (specific activity, fluorescence reduction ex/em 390/450 nm); type: biochemical; conditions: SEQ ID NO: 1 = 100%
Outline: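 Recombinant enzyme preparation with 200 ng/mL OTA in 100 mM sodium phosphate, at pH 6.0 and pH 7.5, 37° C. Degradation followed as the fall in fluorescence at ex/em 390/450 nm. Specific activity taken from the initial linear slope; one unit degrades 1 μmol OTA per min at a starting OTA of […].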

[2] = Enzymatic activity comparison: activity remaining after 65° C. for 10 min at pH 6.0, relative to SEQ ID NO: 1; type: physicochemical
Protocol: To compare the temperature behavior and thermostability of selected enzymes to one another, enzyme was incubated at 65° C. for 10 min at pH 6.0. The enzymatic activity remaining after incubation was compared to the remaining activity of the enzyme of SEQ ID NO: 1 after incubation, the latter being set to 100%, see Table 16.

Row | Molecule | Specific OTA detoxification activities in % compared to the enzyme of SEQ ID NO: 1, pH 6.0 [1] | Specific OTA detoxification activities in % compared to the enzyme of SEQ ID NO: 1, pH 7.5 [1] | Enzymatic activity remaining after incubation, compared to SEQ ID NO: 1 (set to 100%) [2]
1 | 160 (protein, exemplary polypeptide) MTTRTRILTAFLSLLAANACAADAAPAAPHTVVLRAARMFDGASGKLVDHPQLTIVGNKIVRIAQGDKAEVPAGAEVVDLGDATLLPGFIDAHVHLSGQSSDNWYGDFFDNMMRFPAEQALYGAYYARITLEAGFTSVRDVGSTDWVALGLRNAIDAGKVPGPRMLVSNYAVGSTGGHADQDPIPPHKLPLAGPLQGVCNGPEECRAAVRYQIKYGANVIKFMPSGGVLSLSDPVDAPELSQDEMNAVIGESHAWGRKVAAHAHGDKAAKMAVAAGVDSIEHGSFIEDDTLRAMKAKNVYLVPTISAVAHVEEKIGTYPPVIAEKGRAAAAHLRQTFRHAVQIGVPIALGTDAGVGAHGSNAREFRYMVENGLTPAQALLAGTANAARLLGTFDRVGTLEAGKLADVVAVPGNPIADITVTERPLFVMKDGVVVRRDAVR | 78% | 84% | 30%
2 | 165 (protein, exemplary polypeptide) MTTRTRILTAFLSLLAANACAADAAPAAPHTVVLRAARMFDGASGKLVDHPQLTIVGNKIVRIAQGDKAEVPAGAEVVDLGDATLLPGFIDAHVHLSGQSSDNWYGDFFDNMMRFPAEQALYGAYYARITLEAGFTSVRDVGSTDWVALGLRNAIDAGKVPGPRMLVSNYPVGSTGGHADQDPVPPHKLPLAGPLQGVCNGPEECRAAVRYQIKYGANVIKFMPSGGVLSLSDPVDAPELSQDEMNAVIGESHAWGRKVAAHAHGDKAAKMAVAAGVDSIEHGSFIEDDTLRAMKAKNVYLVPTISAVAHVEEKIGTFPPVIAEKGRAAAAHLRQTFRHAVQIGVPIALGTDAGVGAHGSNAREFRYMVENGLTPAQALLAGTANAARLLGTFDRVGTLEAGKLADVVAVPGNPIADITVTERPLFVMKDGVVVRRDAVR | 46% | 71% | 33%
3 | 166 (protein, exemplary polypeptide) MTTRTRILTAFLSLLAANACAADAAPAAPHTVVLRAARMFDGASGKLVDHPQLTIVGNKIVRIAQGDKAEVPAGAEVVDLGDATLLPGFIDAHVHLSGQSSDNWYGDFFDNMMRFPAEQALYGAYYARITLEAGFTSVRDVGSTDWVALGLRNAIDAGKVPGPRMLVSNYPVGSTGGHADQDPVPPHKLPLAGPLQGVCNGPEECRAAVRYQIKYGANVIKFMPSGGVLSLSDPVDAPELSQDEMNAVIGESHAWGRKVAAHAHGDKAAKMAVAAGVDSIEHGSFIEDDTLRAMKAKNVYLVPTISAIAHVEEKIGTYPPVIAEKGRAAAAHLRQTFRHAVQIGVPIALGTDAGVGAHGSNAREFRYMVENGLTPAQALLAGTANAARLLGTFDRVGTLEAGKLADVVAVPGNPIADITVTERPLFVMKDGVVVRRDAVR | 72% | 68% | 37%
4 | 142 (protein, exemplary polypeptide) MTTRTRILTAFLSLLAANACAADAAPAAPHTVVLRAARMFDGASGKLVDHPQLTIVGNKIVRIAQGDKAEVPAGAEVVDLGDATLLPGFIDAHVHLSGQSSDNWYGDFFDNMMRFPAEQALYGAYYARITLEAGFTSVRDVPSTDWVALGLRNAIDAGKVPGPRMLVSNYAVGSTGGHADQDPIPPHKLPLAGPLQGVCNGPEECRAAVRYQIKYGANVIKFMPSGGVLSLSDPVDAPELSQDEMNAVIGESHAWGRKVAAHAHGDKAAKMAVAAGVDSIEHGSFIEDDTLRAMKAKNVYLVPTISAIAHVEEKIGTFPPVIAEKGRAAAAHLRQTFRHAVQIGVPIALGTDAGVGAHGSNAREFRYMVENGLTPAQALLAGTANAARLLGTFDRVGTLEAGKLADVVAVPGNPIADITVTERPLFVMKDGVVVRRDAVR | 34% | 8% | –
5 | 135 (protein, exemplary polypeptide) MTTRTRILTAFLSLLAANACAADAAPAAPHTVVLRAARMFDGASGKLVDHPQLTIVGNKIVRIAQGDKAEVPAGAEVVDLGDATLLPGFIDAHVHLSGQSSDNWYGDFFDNMMRFPAEQALYGAYYARITLEAGFTSVRDVGSTDWVALGLRNAIDAGKVPGPRMLVSNYAVGSTGGHADQDPIPPHKLPLAGPLQGVCNGPEECRAAVRYQIKYGANVIKFMPSGGVLSLSDPVDAPELSQDEMNAVIGESHAWGRKVAAHAHGDKAAKMAVAAGVDSIEHGSFIEDDTLRAMKAKNVCLVPTISAIAHVEEKIGTFPPVIAEKGRAAAAHLRQTFRHAVQIGVPIALGTDAGVGAHGSNAREFRYMVENGLTPAQALLAGTANAARCLGTFDRVGTLEAGKLADVVAVPGNPIADITVTERPLFVMKDGVVVRRDAVR | 68% | 70% | –
6 | 149 (protein, exemplary polypeptide) MTTRTRILTAFLSLLAANACAADAAPAAPHTVVLRAARMFDGASGKLVDHPQLTIVGNKIVRIAQGDKAEVPAGAEVVDLGDATLLPGFIDAHVHLSGQSSDNWYGDFFDNMMRFPAEQALYGAYYARITLEAGFTSVRDVGSTDWVALGLRNAIDAGKVPGPRMLVSNYAVGSTGGHTDQDPIPPHKLPLAGPLQGVCNGPEECRAAVRYQIKYGANVIKFMPSGGVLSLSDPVDAPELSQDEMNAVIGESHAWGRKVAAHAHGDKAAKMAVAAGVDSIEHGSFIEDDTLRAMKAKNVYLVPTISAIAHVEEKIGTFPPVIAEKGRAAAAHLRQTFRHAVQIGVPIALGTDAGVGAHGSNAREFRYMVENGLTPAQALLAGTANAARLLGTFDRVGTLEAGKLADVVAVPGNPIADITVTERPLFVMKDGVVVRRDAVR | 30% | 13% | –
7 | 164 (protein, exemplary polypeptide) MTTRTRILTAFLSLLAANACAADAAPAAPHTVVLRAARMFDGASGKLVDHPQLTIVGNKIVRIAQGDKAEVPAGAEVVDLGDATLLPGFIDAHVHLSGQSSDNWYGDFFDNMMRFPAEQALYGAYYARITLEAGFTSVRDVGSTDWVALGLRNAIDAGKVPGPRMLVSNYPVGSTGGHADQDPVPPHKLPLAGPLQGVCNGPEECRAAVRYQIKYGANVIKFMPSGGVLSLSDPVDAPELSQDEMNAVIGESHAWGRKVAAHAHGDKAAKMAVAAGVDSIEHGSFIEDDTLRAMKAKNVYLVPTISAAAHVEEKIGTFPPVIAEKGRAAAAHLRQTFRHAVQIGVPIALGTDAGVGAHGSNAREFRYMVENGLTPAQALLAGTANAARLLGTFDRVGTLEAGKLADVVAVPGNPIADITVTERPLFVMKDGVVVRRDAVR | 29% | 63% | 15%
8 | 163 (protein, exemplary polypeptide) MTTRTRILTAFLSLLAANACAADAAPAAPHTVVLRAARMFDGASGKLVDHPQLTIVGNKIVRIAQGDKAEVPAGAEVVDLGDATLLPGFIDAHVHLSGQSSDNWYGDFFDNMMRFPAEQALYGAYYARITLEAGFTSVRDVGSTDWVALGLRNAIDAGKVPGPRMLVSNYAVGSTGGHADQDPIPPHKLPLAGPLQGVCNGPEECRAAVRYQIKYGANVIKFMPSGGVLSLSDPVDAPELSQDEMNAVIGESHAWGRKVAAHAHGDKAAKMAVAAGVDSIEHGSFIEDDTLRAMKAKNVYLVPTISAIAHVEEKIGTYPPVIAEKGRAAAAHLRQTFRHAVQIGVPIALGTDAAVGAHGSNAREFRYMVENGLTPAQALLAGTANAARLLGTFDRVGTLEAGKLADVVAVPGNPIADITVTERPLFVMKDGVVVRRDAVR | 145% | 112% | 17%
9 | 162 (protein, exemplary polypeptide) MTTRTRILTAFLSLLAANACAADAAPAAPHTVVLRAARMFDGASGKLVDHPQLTIVGNKIVRIAQGDKAEVPAGAEVVDLGDATLLPGFIDAHVHLSGQSSDNWYGDFFDNMMRFPAEQALYGAYYARITLEAGFTSVRDVGSTDWVALGLRNAIDAGKVPGPRMLVSNYAVGSTGGHADQDPIPPHKLPLAGPLQGVCNGPEECRAAVRYQIKYGANVIKFMPSGGVLSLSDPVDAPELSQDEMNAVIGESHAWGRKVAAHAHGDKAAKMAVAAGVDSIEHGSFIEDDTLRAMKAKNVYLVPTISAVAHVEEKIGTFPPVIAEKGRAAAAHLRQTFRHAVQIGVPIALGTDAAVGAHGSNAREFRYMVENGLTPAQALLAGTANAARLLGTFDRVGTLEAGKLADVVAVPGNPIADITVTERPLFVMKDGVVVRRDAVR | 191% | 124% | 7%
10 | 232 (protein, exemplary polypeptide) MTTRTRILTAFLSLLAANACAADAAPAAPHTVVLRAARMFDGASGKLVDHPQLTIVGNKIVRIAQGDKAEVPAGAEVVDLGDATLLPGFIDAHVHLSGQSSDNWYGDFFDNMMRFPAEQALYGAYYARITLEAGFTSVRDVGSTDWVALGLRNAIDAGKVPGPRMLVSNYAVGSTGGHADQDPIPPHKLPLAGPLQGVCNGPEECRAAVRYQIKYGANVIKFMPSGGVLSLSQPVDAPELSQDEMNAVIGESHAWGRKVAAHAHGDKAAKMAVAAGVDSIEHGSFIEDDTLRAMKAKNVYLVPTISAIAHVEEKIGTFPPVIAEKGRAAAAHLRQTFRHAVQIGVPIALGTDAGVGAHGSNAREFRYMVENGLTPAQALLAGTANAARLLGTFDRVGTLEAGKLADVVAVPGNPIADITVTERPLFVMKDGVVVRRDAVR | – | – | 25%
